This is an account of results in US8771694 (IMMUNOMEDICS, dated 2014).

The target of the assay is T1, CD22 (LL2 antigen on the surface of Raji cells) (UniProt P20273 20-847, limits assumed).
T1 construct: whole, on cells; All assays used whole Raji cells; also called Raji cell surface antigen; B-lymphoma cells
T1 sequence (looked up): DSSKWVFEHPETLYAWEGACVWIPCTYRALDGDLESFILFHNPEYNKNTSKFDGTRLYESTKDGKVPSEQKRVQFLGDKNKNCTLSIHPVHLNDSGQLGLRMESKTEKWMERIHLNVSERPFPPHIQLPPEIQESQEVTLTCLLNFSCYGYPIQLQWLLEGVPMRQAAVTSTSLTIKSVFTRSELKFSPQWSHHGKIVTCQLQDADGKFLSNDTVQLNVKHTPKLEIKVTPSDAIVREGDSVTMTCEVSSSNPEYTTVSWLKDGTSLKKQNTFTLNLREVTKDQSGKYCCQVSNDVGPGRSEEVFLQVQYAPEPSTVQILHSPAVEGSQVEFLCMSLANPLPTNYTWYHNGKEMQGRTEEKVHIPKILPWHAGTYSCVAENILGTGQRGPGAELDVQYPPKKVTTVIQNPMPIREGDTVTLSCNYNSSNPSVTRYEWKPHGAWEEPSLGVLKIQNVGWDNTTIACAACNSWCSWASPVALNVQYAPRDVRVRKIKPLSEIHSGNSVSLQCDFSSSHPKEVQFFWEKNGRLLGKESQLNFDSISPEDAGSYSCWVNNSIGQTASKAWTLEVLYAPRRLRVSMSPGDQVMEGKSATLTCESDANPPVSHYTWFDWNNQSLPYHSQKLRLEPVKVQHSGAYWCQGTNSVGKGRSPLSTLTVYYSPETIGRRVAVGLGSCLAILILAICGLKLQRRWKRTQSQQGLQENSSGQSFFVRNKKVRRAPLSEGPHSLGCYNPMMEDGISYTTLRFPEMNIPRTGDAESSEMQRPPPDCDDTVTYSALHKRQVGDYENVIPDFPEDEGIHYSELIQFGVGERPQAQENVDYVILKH
As to the kind of experiment: competition flow cytometry on Raji cells, competitor mLL2 F(ab')2. The procedure:
The Raji cell surface antigen binding affinities of mix-and-match and fully humanized antibodies can be compared to that of cLL2 using various concentrations of mLL2 F(ab')_2 fragments devoid of the Fc portion as competitors, as evaluated by flow cytometry assay. Residual surface-bound LL2 antibodies carrying the human Fc portions (cLL2 and mix-and-match LL2) can be detected by a FITC-labeled anti-human Fc specific antibody in a flow cytometry assay.
Briefly, 1 µg of cLL2, mix-and-match LL2, hLL2-1 or hLL2-2 antibodies were incubated with […] Raji cells in the presence of varying concentrations of mLL2 F(ab')_2 fragments (as competitor) in a final volume of 100 µl of PBS buffer supplemented with 1% FCS and 0.01% sodium azide. The mixture was incubated for 30 minutes at 4° C., and washed three times with PBS to remove unbound antibodies. By taking advantage of the presence of human Fc portions in the antibodies, the binding levels of the antibodies were assessed by adding a 20×diluted FITC-labeled goat anti-human IgG1, Fc fragment-specific antibodies (Jackson ImmunoResearch, West Grove, Pa.). The cells were washed three times with PBS, and fluorescence intensities measured by a FACSCAN fluorescence activated cell sorter (Becton-Dickinson, Bedford, Mass.).
A general note: Flow cytometry measures light scatter and fluorescence of single cells or particles in a stream.

B1: humanized LL2 version 1 (antibody, human IgG1, V domains shown)
VH: QVQLQQSGAEVKKPGSSVKVSCKASGYTFTSYWLHWVRQAPGQGLEWIGYINPRNDYTEYNQNFKDKATITADESTNTAYMELSSLRSEDTAFYFCARRDITTFYWGQGTTVTVSS
VL: DIQLTQSPSSLSASVGDRVTMSCKSSQSVLYSANHKNYLAWYQQKPGKAPKLLIYWASTRESGVPSRFSGSGSGTDFTFTISSLQPEDIATYYCHQYLSSWTFGGGTKVQIKR
notes: VH has Q at Kabat position 5; also called hLL2-1; hLL2 with seven murine FR residues in the VH domain
On to B1, for which the binding result is “binds”.

B2: humanized LL2 version 2 (antibody, human IgG1, V domains shown)
VH: QVQLVQSGAEVKKPGSSVKVSCKASGYTFTSYWLHWVRQAPGQGLEWIGYINPRNDYTEYNQNFKDKATITADESTNTAYMELSSLRSEDTAFYFCARRDITTFYWGQGTTVTVSS
VL: DIQLTQSPSSLSASVGDRVTMSCKSSQSVLYSANHKNYLAWYQQKPGKAPKLLIYWASTRESGVPSRFSGSGSGTDFTFTISSLQPEDIATYYCHQYLSSWTFGGGTKVQIKR
notes: VH has V at Kabat position 5; also called hLL2-2; hLL2
With B2, the binding result is listed as “binds”.
